According to patent US11116820B2, “Treatment of hyperinsulinemic hypoglycemia with exendin-4 derivatives” (priority 2016, dated 2021):

Legend:
mouse GLP-1 receptor [1] = biological target: T1, mouse GLP-1 receptor (Mus musculus, UniProt O35659); experiment: cAMP functional assay (HTRF), agonist mode, in βTC6 cells; format: cell-based; details: peptides dissolved at 10 mM in PBS, 10 minutes at room temperature
T1 construct: cells that endogenously express the mouse GLP-1 receptor; endogenous in cells; host or cells: βTC6 cells (mouse)
T1 sequence (O35659 22-463): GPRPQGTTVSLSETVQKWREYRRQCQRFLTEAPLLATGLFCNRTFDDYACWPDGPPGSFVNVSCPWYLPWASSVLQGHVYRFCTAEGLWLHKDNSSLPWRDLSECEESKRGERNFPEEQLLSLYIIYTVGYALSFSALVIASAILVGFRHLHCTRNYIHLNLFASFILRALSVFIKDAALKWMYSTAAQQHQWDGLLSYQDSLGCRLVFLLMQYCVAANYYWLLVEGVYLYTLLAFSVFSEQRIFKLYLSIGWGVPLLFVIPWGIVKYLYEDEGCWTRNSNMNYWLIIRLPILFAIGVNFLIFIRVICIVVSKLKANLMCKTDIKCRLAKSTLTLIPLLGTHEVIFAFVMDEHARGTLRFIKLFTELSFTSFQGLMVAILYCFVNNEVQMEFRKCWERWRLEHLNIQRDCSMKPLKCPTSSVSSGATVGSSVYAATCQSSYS
Method: The agonistic and antagonistic effects of each of the four peptides on the receptor GLP-1 was tested in βTC6 cells, which are cells that endogenously express the mouse GLP-1 receptor, in a cAMP functional assay. […] Following the incubation period, the resulting intracellular level of cAMP was measured by homogenous time resolved fluorescence (HTRF).

mouse GLP-1 receptor [2] = biological target: T1, mouse GLP-1 receptor; experiment: cAMP functional assay (HTRF), antagonist mode, βTC6 cells stimulated with 0.3 nM GLP-1 (7-37); format: cell-based; details: 10 minutes at room temperature
Method: The agonistic and antagonistic effects of each of the four peptides on the receptor GLP-1 was tested in βTC6 cells, which are cells that endogenously express the mouse GLP-1 receptor, in a cAMP functional assay.
Following the incubation period, the resulting intracellular level of cAMP was measured by HTRF.

Q: Which “agonistic activity on GLP-1 receptor (intracellular cAMP)” value (mouse GLP-1 receptor [1]) does the source give for “pegylated exendin(9-39): pegylated form of exendin(9-39), tested as comparator peptide” here?
A: The value was “None of the four peptides exhibited agonistic activity”.

Q: What about the “antagonistic activity on GLP-1 receptor, overall (in words)” value (mouse GLP-1 receptor [2]) of the same substance?
A: Its value is “did not exhibit significant antagonistic activity”.
